Patent US20060194321A1, “Directed differentiation of embryonic stem cells and uses thereof” (priority 2005, published 2006)
“Also recorded” adds a separate entry of the source.

B1: Beta-cellulin: late factor growth factor, 50 ng/ml (protein, UniProt P35070 32-111, looked up)
Betacellulin: DGNSTRSPETNGLLCGDPEENCAATTTQSKRKGHFSRCPKQYKHYCIKGRCRFVVAEQTPSCVCDEGYIGARCERVDLFY
B2: BMP4: early factor, growth factor, 50 ng/ml (protein, UniProt P12644 293-408, looked up)
Bone morphogenetic protein 4: SPKHHSQRARKKNKNCRRHSLYVDFSDVGWNDWIVAPPGYQAFYCHGDCPFPLADHLNSTNHAIVQTLVNSVNSSIPKACCVPTELSAISMLYLDEYDKVVLKNYQEMVVEGCGCR
B3: Activin A: early factor, TGF-β related growth factor, 50 ng/ml (protein, UniProt P08476 311-426, looked up)
Inhibin beta A chain: GLECDGKVNICCKKQFFVSFKDIGWNDWIIAPSGYHANYCEGECPSHIAGTSGSSLSFHSTVINHYRMRGHSPFANLKSCCVPTKLRPMSMLYYDDGQNIIKKDIQNMIVEECGCS
modifications: Inhibin beta A chain
notes: early factor, TGF-β related growth factor, 50 ng/ml
B4: Nodal: TGF-β-related ligand, evolutionarily conserved endoderm inducer; recombinant protein (protein, UniProt Q96S42 238-347, looked up)
Nodal homolog: HHLPDRSQLCRKVKFQVDFNLIGWGSWIIYPKQYNAYRCEGECPNPVGEEFHPTNHAYIQSLLKRYQPHRVPSTCCAPVKTKPLSMLYVDNGRVLLDHHKDMIVEECGCL

System: Human embryonic stem cell 3 (hES3)
Assay: pdx-1 expression by quantitative RT-PCR in embryoid bodies in 3D […] (initiation protocol)
Format: cell-based
Conditions: factor included in or omitted from the early/late factor cocktail, day 20
Method: Human embryonic stem cell 3 (hES3) were subjected to a multi-step differentiation protocol, as outlined in FIG. 2. The embryonic stem cells were cultured as embryoid bodies suspended in 3D in […]™. The cells were cultured for 10 days in medium containing the early factors and then for 10 days in medium containing the late factors. Following culture, cells were assayed for expression of pdx-1.
To establish a baseline for comparison, human embryonic stem cells were differentiated, as described above, in 3-dimensional culture in […]™ for 20 days. […] RNA was isolated and analyzed for pdx-1 and actin expression by RT-PCR. Data were standardized in comparison to actin expression, and the results are expressed as absolute g pdx-1/kg Actin expression+/−SD.
We evaluated individual early and late factors. […] This revised protocol differs from the initial 20-day protocol only in the nature of the early and late factors used. This 2 EF-3 LF protocol included the early factors Activin A (50 ng/ml) and BMP-4 (50 ng/ml). The cells were cultured in the early factors as previously described from day 0 to day 10. The 2 EF-3 LF protocol included the late factors HGF (50 ng/ml), exendin-4 (10 ng/ml), and β-cellulin (50 ng/ml).
RNA isolation, cDNA synthesis, and quantitative PCR: Total RNA from hESC or EBs at various stages of differentiation was isolated using the Qiagen RNeasy kit or prepared using Trizol reagent (Invitrogen) according to the manufacturer's instructions. RNA was and quantified by UV absorption. 1 to 5 μg of RNA was DNase I treated and converted to cDNA using M-MuLV reverse transcriptase (New England Biolabs) using oligo-dT or random hexamer primers according to the manufacturer's instructions. Quantitative PCR was performed according to the manufacturer's instructions using a BioRad iCycler with approximately 50 ng cDNA per reaction containing 250 nM of each primer and 1×SYBR green master mix (Bio-Rad) and analyzed by Bio-RAD thermocycler.
Standard curves were generated by plotting the log (concentration in fg) of series of 100-fold dilutions of the target PCR amplicon (a range of 10^4 fg to 1 fg per reaction) versus the corresponding threshold Ct value. Normalized expression was determined by the following equation: Normalized expression=(input of target gene/input of actin control), where input is calculated as the inverse log of ((the threshold cycle (Ct value)—Y-intercept of standard curve)/slope of standard curve).

| Molecule | contribution of the factor to induction of pdx-1 expression | contribution of the factor to induction of pdx-1 expression (listed as betacellulin) | contribution of the factor to induction of pdx-1 expression (listed as nodal) |
| --- | --- | --- | --- |
| B1 | important component | optional | – |
| B2 | important components | – | – |
| B3 | important components | – | – |
| B4 | little effect; also recorded: does not significantly improve | – | optional |
